Measured values published in paper PMC9433327.
Like-named read-outs stand apart in the source and are kept apart here.

Legend:
[1] = target: LRPL-1 (cDNA lacking the signal peptide) (C. elegans); test: SPR; LRPL-1 biotinylated and captured on a Streptavidin chip, Biacore X100; DMA-1 ectodomain as analyte at 78 nM to 10 µM; HBS (10 mM HEPES pH 7.2, 150 mM NaCl) with 0.05% Tween-20 and 0.1% BSA; kinetic fit and steady-state fit (Langmuir 1:1)
[2] = target: LRPL-1 (cDNA lacking the signal peptide) (C. elegans); test: as above; remark: listed apart in the source

DMA-1 ectodomain (amino acids Leu20 to Leu507) (domain or fragment)
Kd [1]: 3.9 µM
koff [1]: 0.018 s⁻¹
kon [1]: 4600 M⁻¹ s⁻¹
Kd [2]: 6.9 µM
